From patent US20130096072A1 (Genentech, published 2013) come the findings set out here.

Series [1] has as its system IVGG.147A peptide.
Series [2] has as its target T1, scHGF β-chain (zymogen-like HGF β, residues Asn479 to Ser728, R494E, C-terminal His-tag) (human, UniProt P14210 479-728).
T1 construct: Expressed in insect cells; also called zHGF β; zymogen-like form of HGF β; not shown: C-terminal His-tag
Kind of series: phage panning against scHGF β (4 rounds) and phage ELISA. The text has this:
The pfam database (Finn, R. D. et al. (2010) Nucleic Acids Res 38: D211-22) was used to derive a consensus sequence for trypsin/chymotrypsin-like serine proteases and identify the N-terminal IVGG motif. Peptide libraries were synthesized as fusions to the gene VIII coat protein of M13 phage and panned against scHGF β as previously described (Tonikian, R. et al. (2007) Nat Protoc 2: 1368-86; Sidhu, S. S. et al. (2000) Methods Enzymol. 328:333-63). […] Single phage clones were picked, grown overnight and a standard phage ELISA was used to verify target specific binding. Once the IVGG.14 sequence was identified, soft randomization on gene VIII was performed on positions X₂-X₁₁.

The target in series [3] is T1, scHGF β-chain (zymogen-like HGF β, …). Briefly: BLI (OctetRed) scHGF β activation/Met binding assay: peptide titrated into 0.5 µM scHGF β over biotinylated Met Sema/PSI on streptavidin tips; steady-state single-site fit. The method, then:
Met binding assays were carried out utilizing the OctetRed™ biolayer interferometry instrument (ForteBio, Inc.) as reported previously (Landgraf, K. E. et al. (2010) J Biol Chem 285: 40362-72). Biotinylated Met ECD (Sema/PSI-AviTag) was captured on the surface of streptavidin optical sensor tips (SA biosensors, ForteBio, Inc.), and transferred into buffer containing 0.5 μM scHGF β-chain variants in the presence of increasing concentration of indicated peptides. Association and dissociation reactions were monitored to ensure reversible binding between scHGF β and Met. Binding was quantified using the steady-state levels of surface response from the association reaction. Equilibrium constants were derived by least squares fitting of the titration data to a single-site binding equation. Errors reported are ±stdev of n=3 independent experiments.
Based on the finding that the consensus ZAPs contain features consistent with binding and inserting into the activation pocket, several related peptides were synthesized and utilized in a previously established scHGF β activation assay to assess their affinities and ability to active Met binding (Landgraf, K. E. et al. (2010) J Biol Chem 285: 40362-72). Since scHGF β can only weakly interact with the Met Sema-PSI domain compared to the active HGF β form, biolayer interferometry was used in the activation assay to measure the ability of a peptide to directly enhance the binding affinity of scHGF β to a streptavidin sensor surface coated with biotinylated Met (Landgraf, K. E. et al. (2010) J Biol Chem 285: 40362-72). Thus, titration of an activator peptide should result in a significant increase in the surface response signal due to enhanced scHGF β binding to Met.

The target is the same in series [4]. Briefly: BLI scHGF β activation/Met binding assay.
Series [5] deals with scHGF (non-cleavable form of full-length pro-HGF with a mutated cleavage site) (human, UniProt P14210 32-728). Kind of series: cell-based or functional assay.

Bridges are numbered along the chain shown (N, C = ends). Where no end group is shown, it is not given here. [ ]: non-standard residue; d: D form. Hyp = O=C(O)[C@@H]1C[C@@H](O)CN1

T1 sequence (P14210 479-728 R494E): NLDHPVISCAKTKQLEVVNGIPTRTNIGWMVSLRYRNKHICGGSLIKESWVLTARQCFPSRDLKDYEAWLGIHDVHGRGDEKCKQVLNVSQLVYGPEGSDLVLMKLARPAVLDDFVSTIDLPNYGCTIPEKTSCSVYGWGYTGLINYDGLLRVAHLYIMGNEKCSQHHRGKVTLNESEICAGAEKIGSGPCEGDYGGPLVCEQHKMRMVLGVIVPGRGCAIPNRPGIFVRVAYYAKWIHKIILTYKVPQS
Sequence of scHGF (non-cleavable form of full-length pro-HGF with a mutated cleavage site) (P14210 32-728 limits assumed, change not shown): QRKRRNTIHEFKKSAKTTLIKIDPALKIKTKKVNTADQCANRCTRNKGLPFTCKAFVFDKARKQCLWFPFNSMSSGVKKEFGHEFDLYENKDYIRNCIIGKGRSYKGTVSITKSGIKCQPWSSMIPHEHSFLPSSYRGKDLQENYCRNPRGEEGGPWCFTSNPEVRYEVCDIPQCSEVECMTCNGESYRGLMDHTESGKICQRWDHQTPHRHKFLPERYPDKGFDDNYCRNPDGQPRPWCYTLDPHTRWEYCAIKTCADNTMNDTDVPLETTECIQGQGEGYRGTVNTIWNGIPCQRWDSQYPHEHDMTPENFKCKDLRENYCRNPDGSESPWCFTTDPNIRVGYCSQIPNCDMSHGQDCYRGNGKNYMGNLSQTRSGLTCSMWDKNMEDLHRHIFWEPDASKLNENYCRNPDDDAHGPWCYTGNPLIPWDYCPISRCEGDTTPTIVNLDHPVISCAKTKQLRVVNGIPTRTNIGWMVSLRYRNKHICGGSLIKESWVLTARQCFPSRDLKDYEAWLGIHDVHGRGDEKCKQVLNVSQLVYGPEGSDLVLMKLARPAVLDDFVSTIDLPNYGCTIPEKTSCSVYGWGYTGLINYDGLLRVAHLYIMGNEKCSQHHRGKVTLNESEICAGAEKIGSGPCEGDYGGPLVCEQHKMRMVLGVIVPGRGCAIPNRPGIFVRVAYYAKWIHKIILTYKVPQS

On to prethrombin-2, for which the “initial rate of hydrolysis (Vi) of Ile-Pro-Arg-pNA, 100 nM enzyme, 2 mM substrate” value in series [1] was “the initial rate of substrate hydrolysis (Vi) for both prethrombin-2 and Protein C zymogens significantly increased upon titration of IVGG.147A into the reaction”.

Turning to Protein C (zymogen), the “initial rate of hydrolysis (Vi) of Ile-Pro-Arg-pNA, 100 nM enzyme, 2 mM substrate” value in series [1] was “the initial rate of substrate hydrolysis (Vi) for both prethrombin-2 and Protein C zymogens significantly increased upon titration of IVGG.147A into the reaction”.

B1: ZAP.01a phage clone (ZAPtide Library) (peptide)
chain: IVGGVRCWVSN
modifications: not fully specified
notes: Not the 15-mer ZAP.01; not shown: M13 gene VIII coat protein fused after the peptide
For the molecule B1, the binding result in series [2] was “binds”.

B2: ZAP.18 phage clone (ZAPtide Library) (peptide)
chain: IVGGFVFWCDQ
modifications: not fully specified
notes: not shown: M13 gene VIII coat protein fused after the peptide
Take B2: in series [2], the binding result is on record as “binds”.

B3: ZAP.25 phage clone (ZAPtide Library) (peptide)
chain: IVGGNKIWSVS
modifications: not fully specified
notes: as for B2
Regarding B3, in series [2], the binding result was “binds”.

B4: ZAP.50 phage clone (ZAPtide Library) (peptide)
chain: IVGGDYYWVVQ
modifications: not fully specified
notes: as for B2
With B4, in series [2], the binding result is recorded as “binds”.

B5: ZAP.67 phage clone (ZAPtide Library) (peptide)
chain: IVGGPHKAFLL
modifications: not fully specified; also: fused before M13 gene VIII coat protein, linker not given here
notes: as for B2
For the molecule B5, in series [2], the binding result was “binds”.

B6: ZAP.54 phage clone (ZAPtide Library) (peptide)
chain: IVGGLDVEYEL
modifications: not fully specified
notes: as for B2
Consider B6, for which the binding result in series [2] is given as “binds”.

B7: ZAP.11 phage clone (ZAPtide Library) (peptide)
chain: IVGGHPMSPFS
modifications: not fully specified
notes: as for B2
As for B7, the binding result in series [2] was “binds”.

B8: ZAP.03S peptide (peptide)
peptide: IIGGSPYWMDREESI-NH2
notes: ZAP.03 with both cysteines changed to serine; no disulfide
With B8, the Kd in series [3] was 59 µM.

Turning to IIGGY[Hyp]WWMDV-NH2 (Printed as I I G G Y hyP W W M D V) [IIhyP.14 peptide], binding in series [3] was characterised by a dissociation constant (Kd) of 5 µM. Besides, in series [4], the “fold better than IVGG.14” value stood at 7 fold and the “fold better than the previously described peptide activators” value was greater than 400 fold.

In turn, IVDGYPWWMDV-NH2 [IVDG.14 peptide] returned a Kd in series [3] of 85 µM.

B9: ZAP.53 phage clone (ZAPtide Library) (peptide)
chain: IVGGYPWWVDV
modifications: not fully specified
notes: as for B2
With B9, in series [2], the binding result is listed as “binds”.

B10: IVdG.14 peptide (peptide)
peptide: IV[dD]GYPWWMDV-NH2
notes: Printed as I V d G Y P W W M D V, d = D-aspartic acid
For B10, the Kd in series [3] was 21 µM. The “EC50, BxPC-3 cell survival assay, peptide titrated with scHGF” value in series [5] is roughly 20 µM. Further, the “fold better than peptides previously described” value in series [4] stood at 100 fold.

B11: ZAP.04 phage clone (ZAPtide Library) (peptide)
chain: IVGGSDFPWWV
modifications: not fully specified
notes: as for B2
For the molecule B11, the binding result in series [2] is “binds”.

B12: ZAP.09 phage clone (ZAPtide Library) (peptide)
chain: H-IVGGDYWWVPI
modifications: not fully specified
notes: as for B2
Turning to B12, in series [2], the binding result is listed as “binds”.

B13: ZAP.65 phage clone (ZAPtide Library) (peptide)
chain: IVGGEPAYWYW
modifications: not fully specified; also: fused before M13 gene VIII coat protein, linker not given here
notes: as for B2
With B13, the binding result in series [2] was “binds”.

B14: ZAP.43 phage clone (ZAPtide Library) (peptide)
chain: IVGGDPVYVLY
modifications: not fully specified
notes: as for B2
Turning to B14, the binding result in series [2] is reported as “binds”.

B15: ZAP.52 phage clone (ZAPtide Library) (peptide)
chain: IVGGLWEMWVT
modifications: not fully specified
notes: as for B2
On to B15, for which the binding result in series [2] is “binds”.

B16: ZAP.06 phage clone (ZAPtide Library) (peptide)
chain: IVGGDGMPWWI
modifications: not fully specified
notes: as for B2
As to B16, the binding result in series [2] was “binds”.

With IVGGY[Hyp]WWMDV-NH2 (Printed as I V G G Y hyP W W M D V) [IVhyP.14 peptide], binding in series [3] was put at a Kd of 14 µM. The “fold enhancement relative to IVGG.14” value in series [4] amounted to 2 fold.

B17: ZAP.13 phage clone (ZAPtide Library) (peptide)
chain: IVGGYPWWITG
modifications: not fully specified
notes: as for B2
With B17, in series [2], the binding result was “binds”.

B18: ZAP.03 phage clone of Table 4B (ZAPtide Library, SEQ ID NO:129) (peptide)
chain: IVGGDFYSSYW
modifications: not fully specified
notes: as for B2
With B18, the binding result in series [2] is recorded as “binds”.

B19: IVGG.14 phage clone (ZAPtide Library) (peptide)
chain: IVGGYPWWMDV
modifications: not fully specified
notes: as for B2
In the case of B19, the binding result in series [2] is reported as “binds”.

B20: ZAP.32 phage clone (ZAPtide Library) (peptide)
chain: IVGGEPVWYVW
modifications: not fully specified
notes: as for B2
As for B20, in series [2], the binding result is listed as “binds”.

Consider IIGGDPYWVPHPGDA-NH2 [ZAP.01 (linear 15-mer synthetic peptide)], for which the Kd in series [3] stood at 6 µM.

B21: ZAP.91 phage clone (ZAPtide Library) (peptide)
chain: IVGGYPVYFLN
modifications: not fully specified; also: fused before M13 gene VIII coat protein, linker not given here
notes: as for B2
With B21, the binding result in series [2] is reported as “binds”.

B22: ZAP.15 phage clone (ZAPtide Library) (peptide)
chain: IVGGDPWWFVS
modifications: not fully specified
notes: as for B2
With B22, the binding result in series [2] is recorded as “binds”.

In the case of IIGGCPYWMDREECI-NH2 (disulfide 5-14, also called ZAP2.3; ZAP.-3) [ZAP.03 (cyclic 15-mer synthetic peptide)], the Kd in series [3] was determined as 0.3 µM. Moreover, in series [5], the “EC50, HeLa cell migration in an in vitro wound closure assay” value was 0.06 µM and the “EC50, cell survival of BxPC3 cells during serum starvation” value amounted to 0.4 µM. Besides, in series [4], the “fold improvement relative to IVGG.14” value is roughly 100 fold.

B23: ZAP.24 phage clone (ZAPtide Library) (peptide)
chain: IVGGCKRSYWE
modifications: not fully specified
notes: as for B2
For the molecule B23, the binding result in series [2] is “binds”.

B24: ZAP.63 phage clone (ZAPtide Library) (peptide)
chain: IVGGMRLCGYI
modifications: not fully specified; also: fused before M13 gene VIII coat protein, linker not given here
notes: as for B2
In the case of B24, in series [2], the binding result is on record as “binds”.

B25: ZAP.29 phage clone (ZAPtide Library) (peptide)
chain: IVGGTRCNDWI
modifications: not fully specified
notes: as for B2
B25: the binding result in series [2] is listed as “binds”.

B26: ZAP.30 phage clone (ZAPtide Library) (peptide)
chain: IVGGYPAWMEY
modifications: not fully specified
notes: as for B2
As to B26, in series [2], the binding result is given as “binds”.

B27: ZAP.39 phage clone (ZAPtide Library) (peptide)
chain: IVGGSACLIAM
modifications: not fully specified
notes: as for B2
B27: the binding result in series [2] was “binds”.

B28: ZAP.45 phage clone (ZAPtide Library) (peptide)
chain: IVGGKWQRKRV
modifications: not fully specified
notes: as for B2
Consider B28, for which the binding result in series [2] is given as “binds”.

As a reminder, the Kd is a measure of binding affinity in units of concentration.
